These results are taken from US20250154276A1 (ZONHON BIOPHARMA INSTITUTE, published 2025).

Positions count from the first letter of the chain named.

For assay [1], the target named is T1, human CD26 (human, UniProt P27487 1-766). Kind of assay: cell-based or functional assay.
Assay [2] has as its target T1, human CD26. Kind of assay: cell-based or functional assay. This is another data set of the same source.

B1: 18G272 (bispecific antibody)
chain: DIVMTQSASSLPVTPGEPASISCRSDKSLLHSNGNTYLYWFLQKPGQSPQVLIYRMSNLASGVPDRFSGSGSGTDFTLTISRVEAEDVGVYYCFQQLEYPYTFGQGTKLEIKGGGGSGGGGSGGGGSQVQLVQSGAEVVKPGASVKISCKASGFNIKDTYIYWVRQRTGQGLEWIGRIEPMNGNTKYDPKFQGRLTMTANTSKNTAYLQLSSLTSEDTAVYYCSRGGWLLLYVMDYWGQGTTVTVSSGGGGSDVQLVQSGAEVKKPGASVKVSCKASGYTFTRYTMHWVRQAPGQGLEWIGYINPSRGYTNYADSVKGRFTITTDKSTSTAYMELSSLRSEDTATYYCARYYDDHYCLDYWGQGTTVTVSSGGGGSGGGGSGGGGSDIVLTQSPATLSLSPGERATLSCRASQSVSYMNWYQQKPGKAPKRWIYDTSKVASGVPARFSGSGSGTDYSLTINSLEAEDAATYYCQQWSSNPLTFGGGTKVEIK
As to B1, in the assay with human CD26 [1], the “IC50 values (pM) of different bispecific antibodies mediating PBMC cytotoxicity to different target cells (786-0)” value stood at 41.4 pM, the “IC50 values (pM) of different bispecific antibodies mediating PBMC cytotoxicity to different target cells (NCI-H226)” value amounted to 2.6 pM, the “IC50 values (pM) of different bispecific antibodies mediating PBMC cytotoxicity to different target cells (OS-RC-2)” value turned out to be 5.2 pM and the “IC50 values (pM) of different bispecific antibodies mediating PBMC cytotoxicity to different target cells (PC-3)” value was 6.9 pM.

B2: 19G294 (bispecific antibody)
chain: DIVMTQSPSSLSVTPGERVSISCRSDKSLLHSNGNTYLYWFLQKPGQSPQVLIYRMSNLASGVPDRFSGSGSGTDFTLTISRVEAEDVGVYYCFQQLEYPYTFGQGTKLEIKGGGGSGGGGSGGGGSEVQLVQSGAELVKPGASVKLSCAASGFNIKDTYIYWVRQAPGQGLEWVGRIEPMNGNTKYDPKFQGRFTMTANTSKNTAYLQLSSLRSEDTAVYYCSRGGWLLLYVMDYWGQGTLVTVSSGGGGSDVQLVQSGAEVKKPGASVKVSCKASGYTFTRYTMHWVRQAPGQGLEWIGYINPSRGYTNYADSVKGRFTITTDKSTSTAYMELSSLRSEDTATYYCARYYDDHYCLDYWGQGTTVTVSSGGGGSGGGGSGGGGSDIVLTQSPATLSLSPGERATLSCRASQSVSYMNWYQQKPGKAPKRWIYDTSKVASGVPARFSGSGSGTDYSLTINSLEAEDAATYYCQQWSSNPLTFGGGTKVEIK
On to B2, for which the “IC50 values (pM) of different bispecific antibodies mediating PBMC cytotoxicity to OS-RC-2” value with human CD26 [2] was found to be 9.9 pM. Moreover, in the assay with human CD26 [1], the “IC50 values (pM) of different bispecific antibodies mediating PBMC cytotoxicity to different target cells (786-0)” value turned out to be 4.7 pM, the “IC50 values (pM) of different bispecific antibodies mediating PBMC cytotoxicity to different target cells (NCI-H226)” value is 13.7 pM, the “IC50 values (pM) of different bispecific antibodies mediating PBMC cytotoxicity to different target cells (OS-RC-2)” value came to 9.9 pM and the “IC50 values (pM) of different bispecific antibodies mediating PBMC cytotoxicity to different target cells (PC-3)” value is 4 pM.

B3: ZA23 (bispecific antibody, human IgG1, kappa)
heavy 1: QVQLVQSGAEVVKPGASVKISCKASGFNIKDTYIYWVRQRTGQGLEWIGRIEPMNGNTKYDPKFQGRLTMTANTSKNTAYLQLSSLTSEDTAVYYCSRGGWLLLYVMDYWGQGTTVTVSSASTKGPSVFPLAPSSKSTSGGTAALGCLVKDYFPEPVTVSWNSGALTSGVHTFPAVLQSSGLYSLSSVVTVPSSSLGTQTYICNVNHKPSNTKVDKKVEPKSCDKTHTCPPCPAPEFLGGPSVFLFPPKPKDTLMISRTPEVTCVVVDVSQEDPEVQFNWYVDGVEVHNAKTKPREEQFNSTYRVVSVLTVLHQDWLNGKEYKCKVSNKGLPSSIEKTISKAKGQPREPQVYTLPPCQEEMTKNQVSLWCLVKGFYPSDIAVEWESNGQPENNYKTTPPVLDSDGSFFLYSRLTVDKSRWQEGNVFSCSVMHEALHNHYTQKSLSLSLGK
light 1: DIVMTQSASSLPVTPGEPASISCRSDKSLLHSNGNTYLYWFLQKPGQSPQVLIYRMSNLASGVPDRFSGSGSGTDFTLTISRVEAEDVGVYYCFQQLEYPYTFGQGTKLEIKRTVAAPSVFIFPPSDEQLKSGTASVVCLLNNFYPREAKVQWKVDNALQSGNSQESVTEQDSKDSTYSLSSTLTLSKADYEKHKVYACEVTHQGLSSPVTKSFNRGEC
heavy 2: DVQLVQSGAEVKKPGASVKVSCKASGYTFTRYTMHWVRQAPGQGLEWIGYINPSRGYTNYADSVKGRFTITTDKSTSTAYMELSSLRSEDTATYYCARYYDDHYCLDYWGQGTTVTVSSASTKGPSVFPCAPSSKSTSGGTAALGCLVKDYFPEPVTVSWNSGALTSGVHTFPAVLQSSGLYSLSSVVTVPSSSLGTQTYICNVNHKPSNTKVDKKVEPKSSDKTHTCPPCPAPEFLGGPSVFLFPPKPKDTLMISRTPEVTCVVVDVSQEDPEVQFNWYVDGVEVHNAKTKPREEQFNSTYRVVSVLTVLHQDWLNGKEYKCKVSNKGLPSSIEKTISKAKGQPREPQVCTLPPSQEEMTKNQVSLSCAVKGFYPSDIAVEWESNGQPENNYKTTPPVLDSDGSFFLVSRLTVDKSRWQEGNVFSCSVMHEALHNHYTQKSLSLSLGK
light 2: DIVLTQSPATLSLSPGERATLSCRASQSVSYMNWYQQKPGKAPKRWIYDTSKVASGVPARFSGSGSGTDYSLTINSLEAEDAATYYCQQWSSNPLTFGGGTKVEIKRTVAAPSVFICPPSDEQLKSGTASVVCLLNNFYPREAKVQWKVDNALQSGNSQESVTEQDSKDSTYSLSSTLTLSKADYEKHKVYACEVTHQGLSSPVTKSFNRGES
For the molecule B3, the “IC50 values (pM) of different bispecific antibodies mediating PBMC cytotoxicity to OS-RC-2” value in the assay with human CD26 [2] was found to be 87.5 pM.

B4: ZA16 (bispecific antibody, human IgG1, kappa)
heavy 1: not shown
light 1: B3 light 1 with A8P, P12S, P18R, A19V
heavy 2: not shown
light 2: B3 light 2
Regarding B4, the “IC50 values (pM) of different bispecific antibodies mediating PBMC cytotoxicity to OS-RC-2” value in the assay with human CD26 [2] was found to be 5.8 pM.
